Experimental data: patent US11957762B2, “Immune tolerant and non-immune tolerant elastin-like recombinant peptides and methods of use” (University of Utah Research Foundation, priority 2015, dated 2024)

Key:
C57BL/6 mice = test: In vivo CTL response by ELISPOT IFN-γ assay; set-up: species or system mouse; settings: for SIINFEKL-specific CTL response in vivo: immunized C57BL/6 mice, ELISPOT
Text: in vivo CTL response by ELISPOT IFN-γ assay. C57BL/6 mice were immunized subcutaneously with each immunogen (2 nmol […] equivalents per mouse) together with incomplete Freunds Adjuvants (IFA; Sigma, USA) at their left flanks. The immunization was repeated at their right flanks 1 week later. At 10 days after the second immunization, mice were sacrificed, and the spleens were harvested. The spleens of the sacrificed mice were teased into single-cell suspensions and filtered through nylon mesh […]. Red blood cells were lysed by Ammonium-Chloride-Potassium (ACK) lysing buffer. The washed and resuspended single cells were counted using Contess™ Automated Cell Counter (Invitrogen, USA). Splenocytes (8×10^6/mL) were incubated in RPMI-1640 medium supplemented with 10% heat inactivated fetal calf serum, 2 mM glutamine, 100 units/mL penicillin and 100 μg/mL streptomycin (Invitrogen, USA), in a 14 mL polypropylene tissue culture tube for 48 hours, with or without […] peptide (SEQ ID NO: 22) (2.5 μg/mL). The cells were then washed and recounted. 2×10^5 live cells in 100 μL medium were then loaded into wells of 96-well Filtration plates (Millipore, USA) coated with […] of capture anti-mouse IFN-γ mAb (Clone: R4-6A2, Biolegend, USA). Triplicates were set up for each condition. Cells were discarded after 24 hours of culture and the wells were incubated with […] of detectionbiotinylated, anti-mouse IFN-γ mAb overnight (Clone: XMG1.2-Biotin, Biolegend, USA). After the unbound antibodies were washed away from the wells, the bound antibodies were detected using horseradish peroxidase (HRP Avidin, Biolegend, USA) together with 3-amino-9-ethyl-carbazole (AEC) substrate (Sigma, USA). The membranes on the bottom of the wells were peeled off, and color spots on the membrane were scanned. The spots were automatically counted using ImageJ software.
Animal immunization. C57BL/6 mice were immunized by the subcutaneous injection of 2 nmol iTEP NP vaccines and incomplete Freunds Adjuvants (IFA; Sigma, USA) at their left flanks. Immunization was repeated at their right flanks after 1 week. On day 10 after the second immunization, mice were sacrificed, and the spleens were harvested.

[1] = SDS-PAGE analysis of NPs after GSH treatment; assay type: physicochemical; settings: GSH overnight, non-reducing gels
Experimental: SDS-PAGE was used to analyze responses of the RED-NP, the MS-NP, and the ST-NP to the treatment of 1 mM GSH. 1 mM but not 10 μM of GSH reduced disulfide bonds inside RED-NP. A large fraction of polymers of the RED-NP fusion (iTEPB70-iTEPA28-(G8C)4-pOVA; (SEQ ID NO: 61)) became monomers due to the treatment of 1 mM GSH, showing as a 50-kDa band on the gel. In contrast, GSH had no effect on polymerization status of the fusions of MS-NP and ST-NP. Non-reducing gels and 25 μg of each fusion were used for the analysis.

B3Z cells = test: B3Z CD8+ T cell hybridoma activation assay; assay type: cell-based; settings: for activation of B3Z cells: DC2.4 cells pre-incubated with antigen
Experimental: B3Z CD8+ T cell hybridoma activation assay. B3Z cells (a gift from N. Shastri) are a CD8+ T-cell hybridoma engineered to secrete β-galactosidase when their T-cell receptors are engaged with an […]:H2K^b complex.^(33) To do this assay, 1×10^5 DC2.4 cells/well were set in 96-well plates. OVA, […] peptide (SEQ ID NO: 22), and iTEP-pOVA NP (SEQ ID NO: 56) at indicated concentrations were loaded into the cell culture for 16 hours and then washed away. 1×10^5 B3Z cells/well were added to the DC2.4 cell culture and co-cultured with DC2.4 cells for 24 hours. The cells were washed with PBS before 100 μL of lysis buffer (PBS with 100 mM 2-mercaptoethanol, 9 mM MgCl2, 0.125% NP-40) together with 0.15 mM chlorophenol red β-galactoside were added into the wells. After the plates were incubated at 37° C. for 4 hours, the reaction was stopped with 50 μL/well of 15 mM EDTA and 300 mM glycine. The OD at 570 nm was measured and the OD at 630 nm was used as reference. The OD was used as an indicator as activation status of B3Z cells.
Activation of B3Z hybridoma (CD8+T) cells. This assay was done with a protocol described previously (Cho et al., J Drug Target, 2015; p 1-12).

[2] = Hydrodynamic diameter by dynamic light scattering (DLS); assay type: physicochemical; set-up: Stability: key to the marks not given beside the values
Experimental: Characterization of the size of iTEPB-pOVA and iTEPB-iTEPA-pOVA fusions. The particle size distribution of the iTEP fusions was determined by dynamic light scattering (DLS) using a Zetasizer Nano-ZS instrument (Malvern Instruments, Malvern, UK) as previously described.^(29) The fusions were prepared at 5 μM and 25 μM in PBS and equilibrated at 37° C. for the measurement. The reported results represented the average particle size by number.
Dynamic light scattering (DLS) measurement. The measurement was carried out as previously described. iTEP, iTEP-MPBH-ABA-Sali conjugate, or PTX NP were measured at 25 μM in PBS at 37° C. using a Malvern Zetasizer Nano system (Malvern, Chester County, PA, USA).
Characterization of hydrodynamic diameters of iTEP-vaccine fusions. Hydrodynamic diameters of iTEP-vaccine fusions were determined by dynamic light scattering (DLS) using a Zetasizer Nano-ZS instrument (Malvern Instruments, Malvern, UK) as previously described (Zhao et al., Mol Pharm, 2014; 11(8):2703-12). The samples were resuspended at concentrations of 5, 25, 50, and 100 μM in PBS and sat at room temperature overnight before measurement. Some samples were kept in 5% C02 at 37° C. for 16 h before DLS measurement. Hydrodynamic diameter results of the sample of 5 μM concentration were reported because they were not affected by the used sample concentrations. Hydrodynamic diameters were presented using the size-by-number distribution approach. Z-average values and sizes-by-intensity data, however, were also reported.

[3] = after 16 h incubation at 37° C.
[4] = after 16 h incubation in 5% CO2 at 37° C.
[5] = after the 16 h incubation at 37° C.

| Molecule | SIINFEKL-specific CTL response in vivo (C57BL/6 mice) | response to GSH treatment (reduction of disulfide bonds, SDS-PAGE) [1] | activation of B3Z cells (B3Z cells) | hydrodynamic diameter by intensity [2, 3] | hydrodynamic diameter by number distribution [2, 4] | Z-average [2, 5] | hydrodynamic diameter by number distribution ([2]; before incubation (0 h), 5 μM) | Z-average ([2]; before the incubation) | hydrodynamic diameter by intensity ([2]; before the incubation (0 h)) | Stability [2] | SIINFEKL-restricted activated splenocytes (INF-γ ELISPOT) (C57BL/6 mice; subcutaneous immunization twice, 2 nmol SIINFEKL equivalents per mouse with IFA) | B3Z activity, fold more active than DC-treated B3Z cells (B3Z cells) | B3Z activity, fold more active than OVA/DC-treated B3Z cells (B3Z cells) | B3Z activity, fold more active than iTEPB-pOVA/DC-treated B3Z cells (B3Z cells) | mean diameter (DLS) ([2]; 5 μM in PBS, 37° C., by number) | mean diameter / size (DLS) ([2]; 25 μM in PBS, 37° C., by number) |
| --- | --- | --- | --- | --- | --- | --- | --- | --- | --- | --- | --- | --- | --- | --- | --- | --- |
| RED-NP: reductive-environment dependable NP, disulfide stabilized fusion iTEPB70-iTEPA28-(G8C)4-pOVA (SEQ ID NO: 61) (protein) GGAGVPGGAGVPGGAGVPGGAGVPGGAGVPGGAGVPGGAGVPGGAGVPGGAGVPGGAGVPGGAGVPGGAGVPGGAGVPGGAGVPGGAGVPGGAGVPGGAGVPGGAGVPGGAGVPGGAGVPGGAGVPGGAGVPGGAGVPGGAGVPGGAGVPGGAGVPGGAGVPGGAGVPGGAGVPGGAGVPGGAGVPGGAGVPGGAGVPGGAGVPGGAGVPGGAGVPGGAGVPGGAGVPGGAGVPGGAGVPGGAGVPGGAGVPGGAGVPGGAGVPGGAGVPGGAGVPGGAGVPGGAGVPGGAGVPGGAGVPGGAGVPGGAGVPGGAGVPGGAGVPGGAGVPGGAGVPGGAGVPGGAGVPGGAGVPGGAGVPGGAGVPGGAGVPGGAGVPGGAGVPGGAGVPGGAGVPGGAGVPGGAGVPGGAGVPGGAGVPGGGVLPGVGGVLPGVGGVLPGVGGVLPGVGGVLPGVGGVLPGVGGVLPGVGGVLPGVGGVLPGVGGVLPGVGGVLPGVGGVLPGVGGVLPGVGGVLPGVGGVLPGVGGVLPGVGGVLPGVGGVLPGVGGVLPGVGGVLPGVGGVLPGVGGVLPGVGGVLPGVGGVLPGVGGVLPGVGGVLPGVGGVLPGVGGVLPGVGGCGCGCGCGESIINFEKLTESIINFEKLTGG | outperformed the MS-NP and induced stronger CTL responses | can be reduced by 1 mM but not by 10 μM of GSH | failed to activate B3Z cells as effectively as the MS-NP but, again, fared better than the ST-NP | 70.99±17.52 nm | 53.05±12.38 nm | 76.89 nm | 61.94±12.71 nm | 87.59 nm | 75.55±15.32 nm | – | – | – | – | – | – | – |
| ST-NP: stable NP of the fusion iTEPB70-iTEPA56-pOVA (SEQ ID NO: 60) (protein) GGAGVPGGAGVPGGAGVPGGAGVPGGAGVPGGAGVPGGAGVPGGAGVPGGAGVPGGAGVPGGAGVPGGAGVPGGAGVPGGAGVPGGAGVPGGAGVPGGAGVPGGAGVPGGAGVPGGAGVPGGAGVPGGAGVPGGAGVPGGAGVPGGAGVPGGAGVPGGAGVPGGAGVPGGAGVPGGAGVPGGAGVPGGAGVPGGAGVPGGAGVPGGAGVPGGAGVPGGAGVPGGAGVPGGAGVPGGAGVPGGAGVPGGAGVPGGAGVPGGAGVPGGAGVPGGAGVPGGAGVPGGAGVPGGAGVPGGAGVPGGAGVPGGAGVPGGAGVPGGAGVPGGAGVPGGAGVPGGAGVPGGAGVPGGAGVPGGAGVPGGAGVPGGAGVPGGAGVPGGAGVPGGAGVPGGAGVPGGAGVPGGAGVPGGAGVPGGAGVPGGGVLPGVGGVLPGVGGVLPGVGGVLPGVGGVLPGVGGVLPGVGGVLPGVGGVLPGVGGVLPGVGGVLPGVGGVLPGVGGVLPGVGGVLPGVGGVLPGVGGVLPGVGGVLPGVGGVLPGVGGVLPGVGGVLPGVGGVLPGVGGVLPGVGGVLPGVGGVLPGVGGVLPGVGGVLPGVGGVLPGVGGVLPGVGGVLPGVGGGGGGGGGCGGGGGGGGCGGGGGGGGCGGGGGGGGCGESIINFEKLTESIINFEKLTGG | significantly weaker than the one elicited by the MS-NP | did not respond to the treatment | much less robust in activating B3Z cells than the MS-NP | 74.45±18.99 nm | 55.36±12.88 nm | 70.42 nm | 56.01±13.54 nm | 74.59 nm | 78.56±21.60 nm | ++ | – | – | – | – | – | – |
| G(GAGVPG)70G(GVLPGVG)28G(ESIINFEKLT)2GG (protein) GGAGVPGGAGVPGGAGVPGGAGVPGGAGVPGGAGVPGGAGVPGGAGVPGGAGVPGGAGVPGGAGVPGGAGVPGGAGVPGGAGVPGGAGVPGGAGVPGGAGVPGGAGVPGGAGVPGGAGVPGGAGVPGGAGVPGGAGVPGGAGVPGGAGVPGGAGVPGGAGVPGGAGVPGGAGVPGGAGVPGGAGVPGGAGVPGGAGVPGGAGVPGGAGVPGGAGVPGGAGVPGGAGVPGGAGVPGGAGVPGGAGVPGGAGVPGGAGVPGGAGVPGGAGVPGGAGVPGGAGVPGGAGVPGGAGVPGGAGVPGGAGVPGGAGVPGGAGVPGGAGVPGGAGVPGGAGVPGGAGVPGGAGVPGGAGVPGGAGVPGGAGVPGGAGVPGGAGVPGGAGVPGGAGVPGGAGVPGGAGVPGGAGVPGGAGVPGGAGVPGGESIINFEKLTESIINFEKLTGG | – | did not respond to the treatment | – | – | 8.39±1.20 nm | 422.90 nm | 71.94±20.81 nm | 101.00 nm | 111.90±35.02 nm | – | 105 spots per million seeded splenocytes | 4.38 fold | 3.81 fold | 2.9 fold | 81.2±14.2 nm | 71.9±20.8 nm |
